Legend:
MCF7 cells = assay: In vitro proliferation assay of MCF7 cells, tritiated thymidine (Example 15); type: cell-based, human
Experimental: MCF7 was cultured in Eagle's Minimum Essential Medium, with 0.01 mg/ml human recombinant insulin, 10% fetal bovine serum, and pen/strep. For in vitro proliferation assays it was plated at 8,000 cells per well in a 96-well plate. […] After 5 more days, 1 uCi tritiated thymidine was added per well in 50 ul fresh medium. Six hours later the cells were harvested and radioactivity counted.

MCF-7 tumor cells = assay: In vitro cytotoxicity assay: inhibition of proliferation of MCF-7 cells, CCK-8 (Example 6); type: cell-based; conditions: Homo sapiens, MCF7, read-out: IC50 (50% inhibition of cell proliferation)
Experimental: Day 0. Five-thousand MCF7 cells were plated per well in a 96-well test plate in 100 ul of rich media on day 0.
Day 1. A shadow plate was made for each test plate, with each well of the shadow plate containing media or 3× the intended final concentration of test agent in media in each well. As a negative control, media is used.
After making the shadow plate, 50 ul is transferred from each well of the shadow plate to the corresponding well of the test plate to generate the final concentrations of test agent in the wells of the test plate.
Day 5. Cell proliferation is determined by adding Dojindo CCK-8 reagent and incubating and measuring absorbance of the dye according to the manufacturer's instructions.

MCF7 tumors = assay: In vivo tumor growth inhibition, MCF7 xenografts; design: species or system nu/nu mice; conditions: IV days 0, 4 and 8; IGF-MTX (long-R3-IGF-1-methotrexate) 10 nmol of MTX/g, free MTX 40 nmol/g
Experimental: (§1) MCF7 cells (human breast adenocarcinoma cell line) were grown in Eagle's minimal essential medium supplemented with 0.1 mg/ml insulin and 10% FCS. The estrogen-dependent MCF7-L cell line was a gift from Deepali Sachdev of the University of Minnesota. MCF7-L cells were grown in modified IMEM medium (Invitrogen, Carlsbad, California, USA) supplemented with 0.1 mg/ml insulin. LNCaP cells (metastatic human prostatic adenocarcinoma) were grown in RPMI supplemented with glutamine and 10% FCS (Invitrogen, Carlsbad, California, USA). Cells were grown at 37° C. in a 5% CO2 humidified atmosphere. In each case, cells were grown to approximately two-thirds confluence, harvested by trypsinization, washed with rich medium and then washed twice with PBS and resuspended in phosphate buffered saline in BD matrigel matrix (Becton Dickinson, Franklin Lakes, New Jersey, USA). Cells were injected intradermally in mice on the back. An estrogen pellet (0.5 mg estradiol, 60-day release, Innovative Research of America, Sarasota, Florida, USA) was implanted subcutaneously between the shoulder blades two days before implanting MCF7 and MCF7-L cells. MCF7 and MCF7-L cells were implanted in 8-week-old female nu/nu mice. LNCaP cells were implanted in 8-week-old male nu/nu mice. The IGF-MTX conjugate was administered in 2 mM HCl, 1% glycerol. MTX was dissolved in PBS. […]

MCF7-L tumors = assay: In vivo tumor growth inhibition, MCF7-L xenografts; design: species or system nu/nu mice; conditions: day 22; IV days 0 and 5; IGF-MTX (long-R3-IGF-1-methotrexate) 10 nmol of MTX/g, free MTX 40 nmol/g
Experimental: as §1, with “mice.” for “mice. LNCaP cells were implanted in 8-week-old male nu/nu mice. The IGF-MTX conjugate was administered in 2 mM HCl, 1% glycerol. MTX was dissolved in PBS.”
The second in vivo study was conducted using an estrogen-dependent MCF7 strain, MCF7-L. Tumor cells were implanted, and mice were monitored for tumor growth. […]

LNCaP cells [1] = assay: In vitro proliferation assay of LNCaP cells, Cell Counting Kit-8; type: cell-based, human; conditions: highest tested concentration of 2000 nM, P=0.003, IGF-MTX = long-R3-IGF conjugate
Experimental: LNCaP cells were plated in a 96-well plate at 5,000 cells per well in RPMI+glutamine+10% FCS medium in 100 μl. After 24 hours, 100 μl fresh medium was added containing no drug (control), IGF-MTX or MTX at the indicated concentration. After 48 hours of further incubation, cell proliferation was assayed with the Cell Counting Kit-8 (Dojindo Molecular Technologies, Kumamoto, Japan) according to the manufacturer's instructions.

MDS = conditions: higher-risk patients, phase III trial; cited from earlier work
[2] = rat, in vivo
[3] = design: species or system Beagle dogs; conditions: dog, in vivo
Text: Toxicokinetic (TK) parameters for free MTX were estimated from plasma concentration-time data arising from a 5-dose once weekly intravenous infusion study with insulin-like growth factor (IGF) MTX conjugate at low (0.5 μEq/kg), mid (2.0 μEq/kg) and high (4.0 μEq/kg) MTX equivalent dose levels. No consistent differences in the plasma levels of MTX were observed between animals of different genders and thus data from males and females were combined. Plasma levels of MTX increased with time both during and following a 1-hour intravenous infusion of the IGF-MTX conjugate. […] Both the AUC∞ and Cmax values were dose proportional. […] The pharmacokinetics of MTX following Day 29 of dosing were similar to those following Day 1 of dosing.
Following intravenous administration of the IGF-MTX conjugate in the dose range of 0.5-4.0 μEq/kg to Beagle dogs, serum levels of the IGF-MTX conjugate decreased quickly. There was no gender bias and an increase in serum exposure was observed on Day 29 compared to Day 1. […] The elimination of the IGF-MTX conjugate was marginally slower with successive doses, resulting in an increased plasma exposure. The elimination of the IGF-MTX conjugate preceded the development of maximal MTX concentrations.

[4] = test system: soluble IGF binding proteins; conditions: compared to wild-type IGF-1; Francis 1992, Tomas 1993, U.S. Pat. No. 4,876,242; cited from earlier work
[5] = Solubility of IGF-1R ligand-MTX conjugates; type: physicochemical; conditions: phosphate buffered saline, or any neutral pH solution containing salt, over about 50 mM NaCl
[6] = target: T1, dihydrofolate reductase (DHFR) (Homo sapiens, UniProt P00374); assay: Dihydrofolate reductase inhibition assay (Sigma-Aldrich kit); type: biochemical; conditions: IC50 in nEq/L divided by MTX per IGF; read-out: inhibition constant in terms of protein concentration
T1 construct: purchased Sigma-Aldrich
T1 sequence (P00374 1-187): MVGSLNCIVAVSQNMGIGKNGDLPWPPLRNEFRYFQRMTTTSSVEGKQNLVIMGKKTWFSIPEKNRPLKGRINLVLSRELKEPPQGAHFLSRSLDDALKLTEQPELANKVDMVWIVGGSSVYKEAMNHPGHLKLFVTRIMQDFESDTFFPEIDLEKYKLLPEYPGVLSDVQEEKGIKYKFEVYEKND
Experimental: The experiments were done with the dihydrofolate reductase assay kit from Sigma-Aldrich (St. Louis, MO, USA), according to the manufacturer's instructions. In the assay dihydrofolate reductase is mixed with pH 7.5 buffer. […] It was incubated for 30 seconds to allow inhibitor binding. Then NADPH is added to 50 uM final concentration, and then dihydrofolic acid is added to 60 uM final concentration. The reaction is monitored by measuring absorbance at 340 nm.

LNCaP cells [7] = conditions: 48 hours, nM methotrexate groups, McTavish et al. 2009; cited from earlier work
LNCaP tumors = assay: In vivo tumor growth inhibition, LNCaP xenografts; design: species or system nu/nu mice; conditions: LNCaP model, 8 nmol/g IGF-MTX vs. 50 nmol/g MTX
Experimental: as §1, with “back.” for “back. An estrogen pellet (0.5 mg estradiol, 60-day release, Innovative Research of America, Sarasota, Florida, USA) was implanted subcutaneously between the shoulder blades two days before implanting MCF7 and MCF7-L cells. MCF7 and MCF7-L cells were implanted in 8-week-old female nu/nu mice. LNCaP cells were implanted in 8-week-old male nu/nu mice. The IGF-MTX conjugate was administered in 2 mM HCl, 1% glycerol. MTX was dissolved in PBS.”
In a final in vivo study, prostate cancer LNCaP cells were implanted intradermally on day 0 in mice, which were then randomized to different treatment groups. […] Tumor size was much smaller in the groups treated with 8 nmol/g or 3.2 nmol/g of the IGF-MTX conjugate (dosage expressed as moles of each MTX molecule) compared to mice treated with higher doses of free MTX (50, 20 or 8 nmol/g). […]

## CN(Cc1cnc2nc(N)nc(N)c2n1)c1ccc(C(=O)N[C@@H](CCC(=O)O)C(=O)O)cc1 [Methotrexate, methotrexate]
MCF7 cells; Homo sapiens, MCF7, parallel assay, free drug
  IC50: 17 nM
MCF7 cells; MCF-7 cells in vitro
  IC50 of MTX lower than IGF-MTX: about 50 fold
MCF-7 tumor cells
  IC50: 88 nM
MCF7 tumors
  tumor growth over 12 days of observation: tumors continued to grow
MCF7-L tumors
  tumor growth inhibition: inhibited about equally
LNCaP cells [1]
  inhibition of proliferation compared with IGF-MTX: significantly greater inhibition than IGF-MTX

## Nc1ncn([C@@H]2O[C@H](CO)[C@@H](O)[C@H]2O)c(=O)n1 [azacitidine]
MDS
  patients with responses: approximately 50%
  survival at 2 years of follow-up compared to conventional care: doubled

## IGF-MTX
[2]
  decrease of platelets: approximately 38%
  increase of mean spleen weight: 17 to 38%
  mean increases or decreases in blood glucose: −1.8±7 to 7.5±3.4
  reduction in neutrophils: 50-57%
  reduction of WBC's: 5-35%
[3]
  apparent clearance of MTX: 5.67 to 7.67 mL/min/kg
  apparent volume of distribution of the IGF-MTX conjugate: 0.07 to 0.20 L/kg
  decrease of apparent clearance on Day 29 compared to Day 1: 25-50%
  mean residence time of the IGF-MTX conjugate: 1.4 to 5.3 h
  terminal half-life of the IGF-MTX conjugate: 2.5 to 4.6 h
[3]; iv
  apparent clearance of the IGF-MTX conjugate: 0.33 to 0.83 mL/min/kg

## des(1-3)IGF1: lacks the first three residues of wild-type IGF-1, SEQ ID NO: 7 [reference compound]
[4]
  binding affinity to the soluble IGF binding proteins: reduced binding affinity

## insulin-MTX: insulin conjugated to methotrexate
[5]
  solubility: low solubility

B1: LR3IGF-MTX (conjugate)
chain: MFPAMPLSSLFVNGPRTLCGALVDALQFVCGDRGFYFNKPTGYGSSSRRAPQTGIVDECCFRSCDLRRLEMYCAPLKPAKSEA
[6]
  IC50: 35 nM
LNCaP cells [7]
  IC50: ~1000 nM
[5]
  solubility: low solubility
LNCaP tumors
  more effective than free MTX at fold lower molar dose of MTX groups: at least 6 fold

B2: IGF132: variant of IGF-1, SEQ ID NO: 4, disclosed in U.S. Pat. No. 4,876,242 (protein)
chain: FVNQHLCGSHLVEALYLVCGDRGFYFNKPTGYGSSSRRAPQTGIVDECCFRSCDLRRLEMYCAPLKPAKSA
[4]
  binding affinity to the soluble IGF binding proteins: reduced binding affinity

Source: patent US12527876B2, “Insulin-like growth factor-chemotherapeutic conjugate for treating myelodysplastic syndrome” (IGF Oncology, LLC, priority 2017, dated 2026)
